This note sets out measurements from US20160362487A1 (Regeneron, published 2016).

The target in test [1] is T1, human IL-33 (R&D Systems, #3625-IL-010/CF) (human, UniProt O95760 112-270).
T1 construct: Commercial recombinant protein; also called hIL-33; interleukin-33
T1 sequence (looked up): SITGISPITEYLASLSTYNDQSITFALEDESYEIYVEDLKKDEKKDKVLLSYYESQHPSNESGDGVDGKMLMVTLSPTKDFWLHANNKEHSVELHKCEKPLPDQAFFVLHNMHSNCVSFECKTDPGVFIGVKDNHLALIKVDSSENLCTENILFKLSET
Briefly: BLI; hIL-33 pre-mixed with mAb-2 Isotype control 1. The protocol: (§1) Binding competition between a panel of different anti-IL-33 monoclonal antibodies was determined using a real time, label-free bio-layer interferometry assay on an Octet® HTX biosensor (ForteBio, A Division of Pall Life Sciences). The experiment was performed at 25° C. using a buffer of 0.01M HEPES pH7.4, 0.15M NaCl, 0.05% v/v Surfactant Tween-20, and 0.1 mg/ml BSA (HBS-ET kinetics buffer) with the plate shaking at a speed of 1000 rpm. To assess whether two antibodies were able to compete with one another for binding to human IL-33, a pre-mix assay format was used where 100 nM of human IL-33 (R&D Systems; #3625-IL-010/CF) was pre-mixed with 500 nM of different anti-IL-33 monoclonal antibodies (subsequently referred to as mAb-2) for at least 2 hours prior to running the binding competition assay. […] Following the capture step, unoccupied anti-mouse Fc polyclonal antibody and anti-human Fc polyclonal antibody on the Octet biosensors were saturated by submerging them for 4 minutes into wells containing 200 μg/mL of a non-specific monoclonal antibody with a mouse Fc or with a human Fc, respectively. Finally, the Octet biosensors were immersed for 4 minutes into wells containing the pre-mixed samples of 100 nM of human IL-33 and 500 nM of mAb-2. At the end of each cycle, the non-covalently captured anti-IL-33 antibodies along with the bound pre-complex of human IL-33 and mAb-2 were removed from the biosensors using three alternate 20 second immersions into 10 mM HCl followed by submerging into HBS-ET kinetics buffer. The biosensors were washed in HBS-ET kinetics buffer in between every step of the experiment. The real-time binding response was monitored during the binding events, and the binding response (in units of nm) at the end of every step was recorded.
A general note: In BLI a coated tip is dipped into the sample, and binding shifts an interference pattern.

Test [2] has as its target T2, cynomolgus monkey IL-33 expressed with a C-terminal hexahistidine tag (cynomolgus monkey).
T2 construct: also called MfIL-33-6His; Mf-IL-33-6His
T2 chain: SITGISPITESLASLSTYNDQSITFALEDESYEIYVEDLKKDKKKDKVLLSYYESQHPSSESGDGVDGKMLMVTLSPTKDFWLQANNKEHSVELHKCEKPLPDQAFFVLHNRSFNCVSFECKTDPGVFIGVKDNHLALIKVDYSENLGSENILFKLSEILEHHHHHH
Put plainly: BLI; mAb-1 on captured MfIL-33-6His. The protocol:
Binding competition between a panel of different anti-IL-33 monoclonal antibodies was determined using a real time, label-free bio-layer interferometry assay on an Octet® HTX biosensor (ForteBio, A Division of Pall Life Sciences). The experiment was performed at 25° C. using a buffer of 0.01M HEPES pH7.4, 0.15M NaCl, 3 mM EDTA, 0.05% v/v Surfactant Tween-20, and 0.1 mg/ml BSA (HBS-ET kinetics buffer) with the plate shaking at a speed of 1000 rpm. […] The antigen-captured biosensors were then saturated with a first anti-IL-33 monoclonal antibody (subsequently referred to as mAb-1) by immersion into wells containing 50 μg/mL solution of mAb-1 for 5 minutes. The biosensors were then dipped into wells containing a 50 μg/mL solution of a second anti-IL-33 monoclonal antibody (subsequently referred to as mAb-2) for 4 minutes. The biosensors were washed in HBS-ET kinetics buffer in between every step of the experiment. The real-time binding response was monitored during the experiment, and the maximum binding response for each binding step was recorded. The response of mAb-2 binding to MfIL-33-6His pre-complexed with mAb-1 was measured, and competitive/non-competitive behavior of different anti-IL-33 monoclonal antibodies with respect to each other was determined.

In test [3] the target is T1, human IL-33 (R&D Systems, …). Briefly: BLI; hIL-33 pre-mixed with mAb-2 H1M9565N. The protocol:
as §1

Test [4] addresses T3, pre-formed complex of hIL-33 and captured hST2-MMH (human, UniProt O95760 112-270).
T3 construct: Ligand-receptor complex on the sensor: hST2-MMH captured by anti-myc mAb and saturated with 100 nM hIL-33; also called hIL-33 pre-complexed with hST2-MMH
Briefly: SPR 25C, 100 nM mAb over hIL-33/hST2-MMH complex. The protocol: The ability of anti-IL-33 antibodies to bind to a pre-formed complex of IL-33 with ST2 was tested using Biacore T-200 instrument equipped with a real-time surface plasmon resonance biosensor. The experiment was performed at 25° C. with a running buffer composed of 0.01M HEPES pH 7.4, 0.15M NaCl, 3 mM EDTA, and 0.05% v/v Surfactant Tween-20 (HBS-ET). […] The captured hST2-MMH surface was then saturated by injecting 100 nM of human IL-33 (hIL-33; R&D Systems, #3625-IL-010/CF) for 3 minutes followed by a 3 minute injection of a 100 nM solution of the anti-IL-33 monoclonal antibody. The real-time binding response was monitored during the entire course of the experiment, and the observed binding response at 3 minutes after injection of anti-IL-33 antibody to the pre-formed complex of hIL-33 and captured hST2-MMH was recorded and tabulated and shown in Table 7. No non-specific binding of anti-IL-33 monoclonal antibody to the anti-myc tag capture surface was observed.

B1: H4H9640P (antibody, human IgG4, V domains shown)
VH: QVQLQESGPGLVKPSETLSLTCTVSGGSISSYYWSWIRQPPGKGLELIGYIYYSGSTNYNPSLKSRVTISVDTSKNHFSLKLSSVTAADTAVYYCARSQYTSSWYGSFDIWGQGTMVTVSS
VL: DIQMTQSPSSVSASVGDRVTITCRASQGISTWLAWFQQKPGKAPKLLIYAASTLQGGVPSRFSGSGSGPEFTLTISSLQPEDFATYYCQQANSFPWTFGQGTKVEIK
notes: Human IgG4 Fc (H4H)
For the molecule B1, the “mAb-1 Binding to the Pre-complex of mAb-2 & hIL-33” value (shortened to “mAb-1 Binding to the Pre-complex”) in test [1] was 0.18 nm; in test [3] it was 0.57 nm. The “mAb-1 Binding (nm)” value in test [2] came to 0.61 nm. For the same molecule, in test [4], the “Antibody Binding Response (RU)” value is -1 RU.

B2: H4H9629P (antibody, human IgG4, V domains shown)
VH: EVQLVESGGGLVQPGGSLRLSCAASGFTFRSFAMSWVRQAPGKGLELVSDLRTSGGSTYYADSVKGRLTISRDNSKNTLYLQMNSLRAEDTAVYYCAKSHYSTSWFGGFDYWGQGTLVTVSS
VL: DIQMTQSPSSVSASVGDRVTITCRASQGFSSWLAWYQQKPGKAPKLLIYAASSLQSGVPSRFSGSGSGTDFTLTITNLQPEDFATYYCQQANSFPLTFGGGTKVEIK
notes: Human IgG4 Fc (H4H)
Consider B2, for which the “mAb-1 Binding to the Pre-complex” value in test [1] was found to be 0.22 nm; in test [3], 0.74 nm. The “mAb-1 Binding (nm)” value in test [2] was determined as 0.72 nm. For the same molecule, the “Antibody Binding Response (RU)” value in test [4] was -1 RU.

B3: H4H9659P (antibody, human IgG4, V domains shown)
VH: QVQLVQSGAEVKKPGASVKVSCKASGYTFNSYGISWVRQAPGQGLEWMGWISSHNGNSHYVQKFQGRVSMTTDTSTSTAYMELRSLRSDDTAVYYCARHSYTTSWYGGFDYWGQGTLVTVSS
VL: DIQMTQSPSSVSASVGDRVTITCRASQGFSSWLAWYQQKPGKAPQLLIYAASSLQSGVPSRFSGSGSGSDFTLTISSLQPEDFATYYCQQANSFPLTFGGGTKVEIK
notes: Human IgG4 Fc (H4H)
Consider B3, for which the results for the “mAb-1 Binding to the Pre-complex” value in test [1] and in test [3] were 0.17 nm and 0.52 nm, respectively. Moreover, the “mAb-1 Binding (nm)” value in test [2] worked out at 0.56 nm. Further, the “Antibody Binding Response (RU)” value in test [4] was -1 RU.

B4: H4H9663P (antibody, human IgG4, V domains shown)
VH: QVQLVQSGAEVKKPGASVKVSCKASGYTFTGHYMYWMRQAPGQGLEWMGWINPNSGGTNYAQKFQDRVTMTRDTSISTAYMELSRLRSDDTAVYYCARGRYGSSWYGGFEYWGQGTLVTVSS
VL: DIQMTQSPSSVSASVGDRVTITCRASQGITSWLAWYQQKPGKAPNLLIYAAASLQSGVPSRFSGSGSGTDFTLTISSLQPEDFTTYYCQQAYSLPLTFGGGTKVEIK
notes: Human IgG4 Fc (H4H)
On to B4, for which the “mAb-1 Binding to the Pre-complex” value in test [1] came to 0.17 nm; in test [3], 0.54 nm. In test [2], the “mAb-1 Binding (nm)” value worked out at 0.54 nm. Moreover, the “Antibody Binding Response (RU)” value in test [4] was -1 RU.

B5: H4H9633P (antibody, human IgG4, V domains shown)
VH: EVQLVESGGGLVQPGGSLRLSCAASGFTFSSYVMSWVRQAPGKGLEWVSSISGNGGSTNYADSVKGRFTISRDNSKNTLFLEMNSLRAEDTAVYYCAKSLGTTTTFLGFDYWGQGTLVTVSS
VL: DIQMTQSPSSVSASVGDRVTITCRASQGISSWLAWYQQKPGKAPKLLIYAASSLQSGVPSRFSGSGSGTYFTLTISSLQPEDFATYYCQQANSFPLTFGGGTKVEIK
notes: Human IgG4 Fc (H4H)
For the molecule B5, the “mAb-1 Binding to the Pre-complex” value in test [1] came out at 0.21 nm; in test [3] it was 0.66 nm. The “mAb-1 Binding (nm)” value in test [2] amounted to 0.64 nm. Further, the “Antibody Binding Response (RU)” value in test [4] was -1 RU.

B6: H4H9660P (antibody, human IgG4, V domains shown)
VH: EVQLVESGGGLVQPGGSLRLSCAASGITLSSYGMSWVRQAPGKGLEWVASIFGSGGGPYYADSVKGRFTMSRDNSKNTLYLQMNSLRAEDTAVYYCAKDRYSGSYYGGFDYWGRGTLVTVSS
VL: DIQMTQSPSSVSASVGDRVTITCRASQGITSWLAWYQQKPGKAPTLLIYAASSLQTGVPSRFSGSGSGTDFTLTISSLQPEHFATYYCQQANSFPPTFGGGTKVEIK
notes: Human IgG4 Fc (H4H)
In the case of B6, the “mAb-1 Binding to the Pre-complex” value was 0.21 nm in test [1] and 0.53 nm in test [3]. Further, the “mAb-1 Binding (nm)” value in test [2] amounted to 0.58 nm. Moreover, the “Antibody Binding Response (RU)” value in test [4] was -1 RU.

B7: H4H9662P (antibody, V domains shown)
VH: EVQLVESGGGLVQPGGSLRLSCAASGFTFSSYALTWVRQAPGKGLEWVSFISGSGGRPFYADSVKGRFTISRDNSKNMLYLQMNSLRAEDTAIYYCAKSLYTTSWYGGFDSWGQGTLVTVSS
VL: DIQMTQSPSSVSASVGDRVTITCRASQGVVSWLAWYQQKPGKAPKLLIYAASSLQSGVPSRFSGSGSGTDFTLTISSLQPEDFATYYCQQSNSFPFTLGPGTKVDIK
notes: Human IgG4 Fc (H4H)
In the case of B7, the “mAb-1 Binding to the Pre-complex” value in test [1] was 0.19 nm; in test [3] it was 0.57 nm. Also, in test [2], the “mAb-1 Binding (nm)” value stood at 0.56 nm. In addition, the “Antibody Binding Response (RU)” value in test [4] came out at 0 RU.

B8: H1M9568N (antibody, mouse IgG1, V domains shown)
VH: QVLLVQSGAEVKKPGATVKVSCKASGSTFTGYYMHWVRQAPGQGLEWMGWINPNNGGTNYAQKFQGRVTMTRDTSISTAYMELSRLRSDDTAVYYCARELRYNWKSWGQGTLVTVSS
VL: EIVLTQSPGTLSLSPGERVTLSCRASQSVGRPYLAWYQQIPGQAPRLLIYGASSRATDIPDRFSGNGSGTDFTLTISRLEPEDFAVYYCQQYDNSPYTFGQGTRLEIK
notes: Human variable domains, mouse IgG1 Fc (H1M)
As for B8, the entries for the “mAb-1 Binding to the Pre-complex” value in test [1] and in test [3] were 0.05 nm and 0.08 nm, respectively. Besides, the “mAb-1 Binding (nm)” value in test [2] stood at 0.5 nm. Also, in test [4], the “Antibody Binding Response (RU)” value was determined as 131 RU.

B9: H1M9565N (antibody, mouse IgG1, V domains shown)
VH: QVTLKESGPVLVKPTESLTLTCSVSGFSLSNVRMGVSWIRQSPGKALEWLAHIFSNDEKSYTTSLKTRLTISKDTSRSQVVLTMTDMDPGDTATYYCARIRNLAFNYWGQGTLVTVSS
VL: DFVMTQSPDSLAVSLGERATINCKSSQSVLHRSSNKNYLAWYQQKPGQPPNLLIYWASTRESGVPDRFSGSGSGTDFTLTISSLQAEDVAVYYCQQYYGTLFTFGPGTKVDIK
notes: as for B8
In the case of B9, the “mAb-1 Binding to the Pre-complex” value in test [1] was -0.01 nm. Further, the “mAb-1 Binding (nm)” value in test [2] was 0.46 nm. The “Antibody Binding Response (RU)” value in test [4] amounted to 11 RU.

B10: H1M9566N (antibody, mouse IgG1, V domains shown)
VH: EVQLLESGGDLVQPGGSLRLSCAASGFTFSSYAMSWVRQAPGKGLEWVSVISGSGSSTDYADSVKGRFTISRDNSRDTLHLQMNSLRAEDTAVYYCAKTFYYFYGLDVWGQGTTVTVSS
VL: DIQMTQSPSSLSASLRDRVTITCRASQGISNYLAWYQQKPGKVPKVLIYAASTLQSGVPSRFSGSGSGTVFTLTISSLQTEDVATYYCQKYSSAPFTFGPGTKVDIK
notes: as for B8
As to B10, the “mAb-1 Binding to the Pre-complex” value in test [1] is 0.06 nm; in test [3], 0.17 nm. In test [2], the “mAb-1 Binding (nm)” value stood at 0.58 nm. Besides, the “Antibody Binding Response (RU)” value in test [4] worked out at 13 RU.
